Results taken from patent US20070055049A1.

What was measured:
HLA-A*0201 (human) [1] = assay: competitive inhibition, purified HLA-A2.1
HLA-A*0201 (human) [2] = assay: competitive inhibition, purified HLA-A2.1, reference peptide
HLA-A*0201 (human) [3] = assay: competitive inhibition, purified HLA-A2.1, standard reference peptide
HLA-A*0201 (human) [4] = assay: competitive inhibition of the radiolabeled peptide, purified HLA, average
HLA-A*0203 (human) = assay: as above
HLA-A*0201 (human) [5] = conditions: remark: other sources report otherwise
[6] = target: HLA-A3.2 (product of the A*0301 gene) (human)
HLA-A*0201 (human) [7] = assay: inhibition curve with unlabeled peptide, purified A2.1; conditions: remark: other sources report otherwise

## YMDDVVLGA (modifications not checked) [HBV pol 538 peptide]
HLA-A*0201 (human) [1]
  IC50: 200 nM

## FLPSDYFPSV (modifications not checked) [HBV core 18-27 F6>Y analog peptide]
HLA-A*0201 (human) [2]
  IC50: 5 nM
HLA-A*0201 (human) [3]
  IC50: 5 nM
HLA-A*0201 (human) [4]
  IC50: 5 nM
HLA-A*0203 (human)
  IC50: 10 nM

## FLPSDFFPSV (modifications not checked) [HBc 18-27 peptide, P03146 18-27]
HLA-A*0201 (human) [5]
  percent of radiolabeled peptide bound: 95%
[6]
  IC50: > 30000 nM
HLA-A*0201 (human) [7]
  IC50: 25 nM
